In this test the target is csk21_human CSNK2A1 (UniProt P68400).
UniProt P68400, sequence (P68400 whole entry, looked up): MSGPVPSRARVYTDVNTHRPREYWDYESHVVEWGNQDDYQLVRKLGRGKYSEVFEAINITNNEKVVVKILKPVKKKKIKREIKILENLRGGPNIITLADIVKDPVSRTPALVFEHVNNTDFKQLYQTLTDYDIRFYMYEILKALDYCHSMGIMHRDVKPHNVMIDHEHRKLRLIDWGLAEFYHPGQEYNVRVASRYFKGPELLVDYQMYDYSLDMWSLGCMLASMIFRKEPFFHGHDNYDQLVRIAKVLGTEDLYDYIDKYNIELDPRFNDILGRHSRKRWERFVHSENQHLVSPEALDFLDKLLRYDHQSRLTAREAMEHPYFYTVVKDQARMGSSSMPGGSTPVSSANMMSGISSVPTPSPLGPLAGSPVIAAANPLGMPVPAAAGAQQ

As for “Mediator of DNA damage checkpoint protein 1 (Homo sapiens), Q14676 T301A”, the “effect of a mutation on the interaction” value was “disrupting interaction”.

Take “Mediator of DNA damage checkpoint protein 1 (Homo sapiens), Q14676 T331A”: the “effect of a mutation on the interaction” value was “disrupting interaction”.

Values taken from IntAct's records for PubMed 18583988.
